This note sets out measurements from paper PMC5531472, “A single nucleotide polymorphism causes enhanced radical oxygen species production by human aldehyde oxidase” (PLoS ONE, 2017).

Residue numbers refer to the chain shown, from its start. Names may count otherwise.

B1: human aldehyde oxidase 1 variant G46E (enzyme)
chain: MDRASELLFYVNGRKVIEKNVDPETMLLPYLRKKLRLTGTKYGCGEGGCGACTVMISRYNPITKRIRHHPANACLIPICSLYGAAVTTVEGIGSTHTRIHPVQERIAKCHGTQCGFCTPGMVMSIYTLLRNHPEPTLDQLTDALGGNLCRCTGYRPIIDACKTFCKTSGCCQSKENGVCCLDQGINGLPEFEEGSKTSPKLFAEEEFLPLDPTQELIFPPELMIMAEKQSQRTRVFGSERMMWFSPVTLKELLEFKFKYPQAPVIMGNTSVGPEVKFKGVFHPVIISPDRIEELSVVNHAYNGLTLGAGLSLAQVKDILADVVQKLPEEKTQMYHALLKHLGTLAGSQIRNMASLGGHIISRHPDSDLNPILAVGNCTLNLLSKEGKRQIPLNEQFLSKCPNADLKPQEILVSVNIPYSRKWEFVSAFRQAQRQENALAIVNSGMRVFFGEGDGIIRELCISYGGVGPATICAKNSCQKLIGRHWNEQMLDIACRLILNEVSLLGSAPGGKVEFKRTLIISFLFKFYLEVSQILKKMDPVHYPSLADKYESALEDLHSKHHCSTLKYQNIGPKQHPEDPIGHPIMHLSGVKHATGEAIYCDDMPLVDQELFLTFVTSSRAHAKIVSIDLSEALSMPGVVDIMTAEHLSDVNSFCFFTEAEKFLATDKVFCVGQLVCAVLADSEVQAKRAAKRVKIVYQDLEPLILTIEESIQHNSSFKPERKLEYGNVDEAFKVVDQILEGEIHMGGQEHFYMETQSMLVVPKGEDQEMDVYVSTQFPKYIQDIVASTLKLPANKVMCHVRRVGGAFGGKVLKTGIIAAVTAFAANKHGRAVRCVLERGEDMLITGGRHPYLGKYKAGFMNDGRILALDMEHYSNAGASLDESLFVIEMGLLKMDNAYKFPNLRCRGWACRTNLPSNTAFRGFGFPQAALITESCITEVAAKCGLSPEKVRIINMYKEIDQTPYKQEINAKNLIQCWRECMAMSSYSLRKVAVEKFNAENYWKKKGLAMVPLKFPVGLGSRAAGQAAALVHIYLDGSVLVTHGGIEMGQGVHTKMIQVVSRELRMPMSNVHLRGTSTETVPNANISGGSVVADLNGLAVKDACQTLLKRLEPIISKNPKGTWKDWAQTAFDESINLSAVGYFRGYESDMNWEKGEGQPFEYFVYGAACSEVEIDCLTGDHKNIRTDIVMDVGCSINPAIDIGQIEGAFIQGMGLYTIEELNYSPQGILHTRGPDQYKIPAICDMPTELHIALLPPSQNSNTLYSSKGLGESGVFLGCSVFFAIHDAVSAARQERGLHGPLTLNSPLTPEKIRMACEDKFTKMIPRDEPGSYVPWNVPI
notes: human aldehyde oxidase 1 (hAOX1), protein of 1338 amino acids, SNP-based variant G46E; construct pAF4 derived from pTHcohAOX1; also called hAOX1 G46E; pAF4; source: E. coli TP1000 (ΔmobAB), purified (nickel-nitrilotriacetic acid resin, size exclusion chromatography)
B2: human aldehyde oxidase 1 variant R433P (enzyme)
chain: B1 chain with E46G, R433P
notes: human aldehyde oxidase 1 (hAOX1), protein of 1338 amino acids, SNP-based variant R433P; construct pAF8 derived from pTHcohAOX1; also called hAOX1 R433P; pAF8; source: E. coli TP1000 (ΔmobAB), purified (nickel-nitrilotriacetic acid resin, size exclusion chromatography)
B3: human aldehyde oxidase 1 variant G346R (enzyme)
chain: B1 chain with E46G, G346R
notes: human aldehyde oxidase 1 (hAOX1), protein of 1338 amino acids, SNP-based variant G346R; construct pAF6 derived from pTHcohAOX1; also called hAOX1 G346R; pAF6; source: E. coli TP1000 (ΔmobAB), purified (nickel-nitrilotriacetic acid resin, size exclusion chromatography)
B4: human aldehyde oxidase 1 variant K1237N (enzyme)
chain: B1 chain with E46G, K1237N
notes: human aldehyde oxidase 1 (hAOX1), protein of 1338 amino acids, SNP-based variant K1237N; construct pAF13 derived from pTHcohAOX1; also called hAOX1 K1237N; pAF13; source: E. coli TP1000 (ΔmobAB), purified (nickel-nitrilotriacetic acid resin, size exclusion chromatography)
B5: human aldehyde oxidase 1 variant H363Q (enzyme)
chain: B1 chain with E46G, H363Q
notes: human aldehyde oxidase 1 (hAOX1), protein of 1338 amino acids, SNP-based variant H363Q; construct pAF7 derived from pTHcohAOX1; also called hAOX1 H363Q; pAF7; source: E. coli TP1000 (ΔmobAB), purified (nickel-nitrilotriacetic acid resin, size exclusion chromatography)
B6: human aldehyde oxidase 1 variant R1231H (enzyme)
chain: B1 chain with E46G, R1231H
notes: human aldehyde oxidase 1 (hAOX1), protein of 1338 amino acids, SNP-based variant R1231H; construct pAF12 derived from pTHcohAOX1; also called hAOX1 R1231H; pAF12; source: E. coli TP1000 (ΔmobAB), purified (nickel-nitrilotriacetic acid resin, size exclusion chromatography)
B7: human aldehyde oxidase 1 variant A439E (enzyme)
chain: B1 chain with E46G, A439E
notes: human aldehyde oxidase 1 (hAOX1), protein of 1338 amino acids, SNP-based variant A439E; construct pAF11 derived from pTHcohAOX1; also called hAOX1 A439E; pAF11; source: E. coli TP1000 (ΔmobAB), purified (nickel-nitrilotriacetic acid resin, size exclusion chromatography)
B8: human aldehyde oxidase 1 variant A437V (enzyme)
chain: B1 chain with E46G, A437V
notes: human aldehyde oxidase 1 (hAOX1), protein of 1338 amino acids, SNP-based variant A437V; construct pAF9 derived from pTHcohAOX1; also called hAOX1 A437V; pAF9; source: E. coli TP1000 (ΔmobAB), purified (nickel-nitrilotriacetic acid resin, size exclusion chromatography)
B9: human aldehyde oxidase 1 variant L438V (enzyme)
chain: B1 chain with E46G, L438V
notes: human aldehyde oxidase 1 (hAOX1), protein of 1338 amino acids, SNP-based variant L438V; construct pAF10 derived from pTHcohAOX1; also called hAOX1 L438V; hAOX1-L438V; source: E. coli TP1000 (ΔmobAB), purified (nickel-nitrilotriacetic acid resin, size exclusion chromatography)
B10: human aldehyde oxidase 1 variant G50D (enzyme)
chain: B1 chain with E46G, G50D
notes: human aldehyde oxidase 1 (hAOX1), protein of 1338 amino acids, SNP-based variant G50D; construct pAF5 derived from pTHcohAOX1; purified with a 10-fold lower yield than the other variants; also called hAOX1 G50D; hAOX1-G50D; source: E. coli TP1000 (ΔmobAB), purified (nickel-nitrilotriacetic acid resin, size exclusion chromatography)

This series concerns the molecule itself. The experiment in a line: SEC; size exclusion chromatography on a Superdex 200 10/300 GL column after nickel-NTA purification; data not shown.
In the case of B1, the “stoichiometry N” value worked out at 2. As for B2, the “stoichiometry N” value amounted to 2.

In the case of B3, the “stoichiometry N” value is 2. B4: the “stoichiometry N” value was determined as 2. B5: the “stoichiometry N” value is 2. On to B6, for which the “stoichiometry N” value turned out to be 2.

Regarding B7, the “stoichiometry N” value turned out to be 2. For the protein B8, the “stoichiometry N” value worked out at 2. On to B9, for which the “stoichiometry N” value was 2. With B10, the “stoichiometry N” value stood at 2.
